We go through 25 molecules from US20220135638A1 (Takeda / Millennium, published 2022).

Numbered stars: 1 amine (or outer) side, 2 acyl side, 3 side chain; on linkers, the order of the positions; unused ones are H or OH. Square brackets hold non-standard residues; d marks the D form. Primed or numbered codes have the meaning given here. Side chains are listed from the residue outwards. Ends that are not written are not given here. * marks the point of attachment. C20 diacid = O=C(O)CCCCCCCCCCCCCCCCCCC(=O)*; C16 diacid = O=C(O)CCCCCCCCCCCCCCC(=O)*; γGlu = O=C(O)[C@H](CCC(=O)[*:2])N[*:1]; Iva = CC[C@](C)(N)C(=O)O; PEG3′ = not defined here; Aib = CC(C)(N)C(=O)O

Test [1] addresses T1, full-length human GIPR (GenBank NM_000164) with an N-terminal FLAG tag on HEK-293T cells (human), P48546.
T1 chain: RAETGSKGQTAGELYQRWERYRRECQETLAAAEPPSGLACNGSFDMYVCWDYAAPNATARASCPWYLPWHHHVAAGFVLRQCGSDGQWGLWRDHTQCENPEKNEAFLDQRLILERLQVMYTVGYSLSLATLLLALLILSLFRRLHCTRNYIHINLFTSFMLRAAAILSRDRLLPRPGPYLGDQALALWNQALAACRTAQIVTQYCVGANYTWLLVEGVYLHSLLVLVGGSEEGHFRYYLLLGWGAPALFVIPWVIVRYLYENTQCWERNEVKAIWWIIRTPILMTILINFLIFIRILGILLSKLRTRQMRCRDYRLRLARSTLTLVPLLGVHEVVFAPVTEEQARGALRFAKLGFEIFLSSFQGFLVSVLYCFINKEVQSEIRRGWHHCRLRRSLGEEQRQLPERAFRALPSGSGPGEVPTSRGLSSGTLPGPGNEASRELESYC
Briefly: cell-based or functional assay.

Test [2] has as its target T2, full-length human GLP-1R (GenBank NM_002062) with an N-terminal FLAG tag on HEK-293T cells (human), P43220.
T2 chain: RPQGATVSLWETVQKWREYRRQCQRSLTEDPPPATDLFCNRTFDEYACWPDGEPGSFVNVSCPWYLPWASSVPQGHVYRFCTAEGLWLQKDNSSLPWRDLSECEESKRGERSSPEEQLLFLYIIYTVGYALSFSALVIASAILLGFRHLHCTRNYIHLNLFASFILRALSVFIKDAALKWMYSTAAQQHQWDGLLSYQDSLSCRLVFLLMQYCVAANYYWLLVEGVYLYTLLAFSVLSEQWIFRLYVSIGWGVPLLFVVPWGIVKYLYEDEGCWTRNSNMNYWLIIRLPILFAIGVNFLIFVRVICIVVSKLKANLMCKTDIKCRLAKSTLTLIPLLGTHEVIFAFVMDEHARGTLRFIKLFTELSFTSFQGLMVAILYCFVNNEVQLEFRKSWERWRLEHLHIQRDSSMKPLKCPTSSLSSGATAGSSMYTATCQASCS
Briefly: cell-based or functional assay.

B1: Compound No. 476 (peptide)
peptide: Y[Aib]EGTFISDYSIALDR[Aib]HQ[Aib]NFVNW[Iva]LAQRPSSGAPPK([PEG3′-PEG3′-γGlu-C16 diacid])S
modifications: ends and bridges not checked
Regarding B1, in test [1], the GIP EC50(pM) was determined as 0.74 pM. In test [2], this molecule had a GLP EC50 above 1000 nM.

B2: Compound No. 499 (peptide)
peptide: Y[Aib]EGTFISDYSIALDR[Aib]HQ[Aib]NFVNW[Iva]LAQRPSSGK([PEG3′-PEG3′-γGlu-C20 diacid])PPPS
modifications: ends and bridges not checked
In test [1], B2 came in with a GIP EC50(pM) of 1.17 pM. This molecule displayed a GLP EC50 in test [2] above 1000 nM.

B3: Compound No. 485 (peptide)
peptide: Y[Aib]EGTFISDYSIALDR[Aib]HQ[Aib]NFVNW[Iva]LAQRK([PEG3′-PEG3′-γGlu-C16 diacid])SSGAPPPS
modifications: ends and bridges not checked
B3 returned a GIP EC50(pM) in test [1] of 0.28 pM. Further, the GLP EC50 in test [2] is above 1000 nM.

B4: Compound No. 477 (peptide)
peptide: Y[Aib]EGTFISDYSIALDR[Aib]HQ[Aib]NFVNW[Iva]LAQRPSSGAPPK([PEG3′-PEG3′-γGlu-Ida])S
modifications: ends and bridges not checked
B4 showed a GIP EC50(pM) in test [1] of 0.64 pM. Moreover, the GLP EC50 in test [2] is above 1000 nM.

B5: Compound No. 481 (peptide)
peptide: Y[Aib]EGTFISDYSIALDR[Aib]HQ[Aib]NFVNW[Iva]LAQRPSSGAPPPK([PEG3′-PEG3′-γGlu-C20 diacid])
modifications: ends and bridges not checked
In test [1], B5 gave a GIP EC50(pM) of 0.61 pM. The GLP EC50 in test [2] was above 1000 nM.

B6: Compound No. 497 (peptide)
peptide: Y[Aib]EGTFISDYSIALDR[Aib]HQ[Aib]NFVNW[Iva]LAQRPSSGK([PEG3′-PEG3′-γGlu-C16 diacid])PPPS
modifications: ends and bridges not checked
The molecule B6 came in with a GIP EC50(pM) in test [1] of 0.4 pM. In test [2], this molecule yielded a GLP EC50 above 1000 nM.

B7: Compound No. 464 (peptide)
peptide: Y[Aib]EGTFISDYSIALDR[Aib]HQ[Aib]NFVNW[Iva]LAQRPSSGAPPPK([Gly-Gly-Gly-Gly-Gly-γGlu-C20 diacid])
modifications: ends and bridges not checked
In test [1], B7 displayed a GIP EC50(pM) of 1.29 pM. The molecule also gave a GLP EC50 in test [2] of 977 nM.

B8: Compound No. 487 (peptide)
peptide: Y[Aib]EGTFISDYSIALDR[Aib]HQ[Aib]NFVNW[Iva]LAQRK([PEG3′-PEG3′-γGlu-C20 diacid])SSGAPPPS
modifications: ends and bridges not checked
B8 returned a GIP EC50(pM) in test [1] of 1.38 pM. Besides, the GLP EC50 in test [2] was above 1000 nM.

B9: Compound No. 488 (peptide)
peptide: Y[Aib]EGTFISDYSIALDR[Aib]HQ[Aib]NFVNW[Iva]LAQRPK([PEG3′-PEG3′-γGlu-C16 diacid])SGAPPPS
modifications: ends and bridges not checked
As for B9, the GIP EC50(pM) in test [1] worked out at 0.75 pM. Further, in test [2], the GLP EC50 is above 1000 nM.

B10: Compound No. 492 (peptide)
peptide: Y[Aib]EGTFISDYSIALDR[Aib]HQ[Aib]NFVNW[Iva]LAQRPSK([PEG3′-PEG3′-γGlu-Ida])GAPPPS
modifications: ends and bridges not checked
In test [1], B10 returned a GIP EC50(pM) of 1.22 pM. The GLP EC50 in test [2] was above 1000 nM.

B11: Compound No. 486 (peptide)
peptide: Y[Aib]EGTFISDYSIALDR[Aib]HQ[Aib]NFVNW[Iva]LAQRK([PEG3′-PEG3′-γGlu-Ida])SSGAPPPS
modifications: ends and bridges not checked
On to B11, for which the GIP EC50(pM) in test [1] was found to be 0.7 pM. The molecule further showed a GLP EC50 in test [2] above 1000 nM.

B12: Compound No. 495 (peptide)
peptide: Y[Aib]EGTFISDYSIALDR[Aib]HQ[Aib]NFVNW[Iva]LAQRPSSK([PEG3′-PEG3′-γGlu-Ida])APPPS
modifications: ends and bridges not checked
For the molecule B12, the GIP EC50(pM) in test [1] is 0.86 pM. This molecule showed a GLP EC50 in test [2] above 1000 nM.

B13: Compound No. 468 (peptide)
peptide: Y[Aib]EGTFISDYSIALDR[Aib]HQ[Aib]NFVNW[Iva]LAQRKSSGAPPPS
modifications: not fully specified (residue 31); ends and bridges not checked
B13 came in with a GIP EC50(pM) in test [1] of 0.44 pM. Further, in test [2], the GLP EC50 was above 1000 nM.

B14: Compound No. 469 (peptide)
peptide: Y[Aib]EGTFISDYSIALDR[Aib]HQ[Aib]NFVNW[Iva]LAQRKSSGAPPPS
modifications: not fully specified (residue 31); ends and bridges not checked
Take B14: in test [1], the GIP EC50(pM) worked out at 0.62 pM. Also, the GLP EC50 in test [2] is above 1000 nM.

B15: Compound No. 489 (peptide)
peptide: Y[Aib]EGTFISDYSIALDR[Aib]HQ[Aib]NFVNW[Iva]LAQRPK([PEG3′-PEG3′-γGlu-Ida])SGAPPPS
modifications: ends and bridges not checked
Take B15: the GIP EC50(pM) in test [1] was 0.96 pM. Further, the GLP EC50 in test [2] was above 1000 nM.

B16: Compound No. 494 (peptide)
peptide: Y[Aib]EGTFISDYSIALDR[Aib]HQ[Aib]NFVNW[Iva]LAQRPSSK([PEG3′-PEG3′-γGlu-C16 diacid])APPPS
modifications: ends and bridges not checked
In test [1], B16 yielded a GIP EC50(pM) of 0.5 pM. Moreover, the GLP EC50 in test [2] was above 1000 nM.

B17: Compound No. 496 (peptide)
peptide: Y[Aib]EGTFISDYSIALDR[Aib]HQ[Aib]NFVNW[Iva]LAQRPSSK([PEG3′-PEG3′-γGlu-C20 diacid])APPPS
modifications: ends and bridges not checked
Take B17: the GIP EC50(pM) in test [1] worked out at 1.09 pM. The GLP EC50 in test [2] is above 1000 nM.

B18: Compound No. 491 (peptide)
peptide: Y[Aib]EGTFISDYSIALDR[Aib]HQ[Aib]NFVNW[Iva]LAQRPSK([PEG3′-PEG3′-γGlu-C16 diacid])GAPPPS
modifications: ends and bridges not checked
In the case of B18, in test [1], the GIP EC50(pM) was determined as 0.7 pM. Moreover, in test [2], the GLP EC50 is above 1000 nM.

B19: Compound No. 498 (peptide)
peptide: Y[Aib]EGTFISDYSIALDR[Aib]HQ[Aib]NFVNW[Iva]LAQRPSSGK([PEG3′-PEG3′-γGlu-Ida])PPPS
modifications: ends and bridges not checked
Molecule B19 had a GIP EC50(pM) in test [1] of 0.6 pM. This molecule also had a GLP EC50 in test [2] above 1000 nM.

B20: Compound No. 493 (peptide)
peptide: Y[Aib]EGTFISDYSIALDR[Aib]HQ[Aib]NFVNW[Iva]LAQRPSK([PEG3′-PEG3′-γGlu-C20 diacid])GAPPPS
modifications: ends and bridges not checked
In turn, B20 yielded a GIP EC50(pM) in test [1] of 1.22 pM. The molecule further registered a GLP EC50 in test [2] above 1000 nM.

B21: Compound No. 480 (peptide)
peptide: Y[Aib]EGTFISDYSIALDR[Aib]HQ[Aib]NFVNW[Iva]LAQRPSSGAPPPK([PEG3′-PEG3′-γGlu-Ida])
modifications: ends and bridges not checked
For the molecule B21, the GIP EC50(pM) in test [1] worked out at 0.5 pM. The molecule also registered a GLP EC50 in test [2] above 1000 nM.

B22: Compound No. 479 (peptide)
peptide: Y[Aib]EGTFISDYSIALDR[Aib]HQ[Aib]NFVNW[Iva]LAQRPSSGAPPPK([PEG3′-PEG3′-γGlu-C16 diacid])
modifications: ends and bridges not checked
B22 displayed a GIP EC50(pM) in test [1] of 0.42 pM. The molecule also registered a GLP EC50 in test [2] above 1000 nM.

B23: Compound No. 490 (peptide)
peptide: Y[Aib]EGTFISDYSIALDR[Aib]HQ[Aib]NFVNW[Iva]LAQRPK([PEG3′-PEG3′-γGlu-C20 diacid])SGAPPPS
modifications: ends and bridges not checked
Turning to B23, the GIP EC50(pM) in test [1] came out at 1.88 pM. The molecule further registered a GLP EC50 in test [2] above 1000 nM.

B24: Compound No. 478 (peptide)
peptide: Y[Aib]EGTFISDYSIALDR[Aib]HQ[Aib]NFVNW[Iva]LAQRPSSGAPPK([PEG3′-PEG3′-γGlu-C20 diacid])S
modifications: ends and bridges not checked
In test [1], B24 returned a GIP EC50(pM) of 1.36 pM. In test [2], this molecule showed a GLP EC50 above 1000 nM.

B25: Compound No. 470 (peptide)
peptide: Y[Aib]EGTFISDYSIALDR[Aib]HQ[Aib]NFVNW[Iva]LAQRKSSGAPPPS
modifications: not fully specified (residue 31); ends and bridges not checked
The molecule B25 showed a GIP EC50(pM) in test [1] of 1.12 pM. For the same molecule, in test [2], the GLP EC50 is above 1000 nM.
